Test results from the RNAGym collection of RNA variant scans (doi:10.1073/pnas.2313332121).

B1: TPR t1 (parent)
chain: GACCAAUCUGCCCUCAGAGCUCGAGAACAUCUUCGGAUGCAGAGGAGGCAGGCUUCGGUGGCGCGAUAGCGCCAACGUCCUCAACCUCCAAUGCAUCCCACCACAUGAUGAUGCCUGAAGAGCCUUGGUUUUUUG

Variants of: B1
Assay: polymerase ribozyme fitness, log enrichment relative to wild type (log ratio); higher = more active; in vitro selection for triplet polymerase activity
Procedure, shortened: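 Mutant libraries of both subunits of a heterodimeric triplet polymerase ribozyme were PCR-built, transcribed, and selected once in triplicate, with frozen incubation at −7 °C and capture of gel-excised extended constructs on streptavidin beads before RT-PCR. Illumina sequencing of input and output libraries was filtered to genotypes with ≥10 input reads and ≥1 read per output. Fitness is the logarithm of genotype enrichment over wild-type enrichment, using inverse-variance-weighted replicate averages. The logarithm is base 2.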

Compared with GACCAAUCUGCCCUCAGAGCUCGAGAACAUCUUCGGAUGCAGAGGAGGCAGGCUUAGGUGGCGCGAUAGCGCCAACGUCCUCAACCUCCAAUGCAUCCCACCACAUGAGGAUGCCUGAAGAGCCUUGGUUUUUUG, GACCAAUCUGCUCUCAGAGCUCGAGAACAUCUUCGGAUGCAGAGAAGGCAGGCUUCGGUGGCGCGAUAGCGCCAACGUCCUCAACCUCCAAUGCCUCCCACCACAUGAGGAUGCCUCGAGAGCCUUGGUUUUUUG is lower in “polymerase ribozyme fitness (log ratio)” value: -4.29 for the first, -5.62 for the second.

First: GACCAAUAUGCCCUCAGAGCUCGAGAACAUCUUCGGAUGCAGAGGAGGCAGGCUUCGGUGGCGCGAUAGCGCCAACGUCCUCAACCUCCAAUACAUCCCACCACAUGGUGAUGCCUGAAGAGCCUUGGUUUUUUG
Second: GACCAAUCUGCCCUCAGAGCUCGAGAACAUCUUCGGAUGCACAGGAGGCAGGCUUCGGUGGCGCGAUAGCGUCAACGUCCUCAACCUCCAAUGCAUCCCACCACAUGAUGAUGCCUGAAGAGCCUUGGUUUUUUG
The “polymerase ribozyme fitness (log ratio)” value of the first is lower: -2.37 for the first, -1.39 for the second.

Compared with GACCAAUCUGCCCUCAUAGCUCGAGAACAUCUUCGGAUGCAGAGGAGGCAGGCUACGGUGGCGCGAUAGCGCCAACGUCCUCAACCUCCAAUGCAUCCCACCACAUGAUGAAGGCUGAACAGCCUUGGUUUUUUG, GACCAAUCUGCCCUCAGAGUUCGAGAACAUCUUCGGAUGCAGAGGUGGCAGGCUUCGGUGGCGCGAUAGCGCCAACGUCCUCAACCUCCAAUGCAUCCCACCACAUGAUGAUGCCUGAAGAGCCUUGGUUUUUUG is higher in “polymerase ribozyme fitness (log ratio)” value: -5.87 for the first, -2.88 for the second.

First: GACCAAUCUGCCCUCAGAGGUCGAGAACAUCUUCGGAUGCAGAGGAGGCAGGCUUCGGUGGCGCGAUAGCGCCAUCGUCCUCAACCUCCAAUGCAUCCCACCACAUGAUGAUGCCUGAAGAGCCUUGGUUUUUUG
Second: GACCAAUCUGCCCUCAGAGCUCGAGAACAUCUUCGGAAGCAGAGGAGGCAGUCUUCGGUGGUGCGAUAGCGCCAACGGCCUCAACCUCCGAUGCAUCCCACCACAUGAUGAUGCCUGAAGAGCCUUGGUUUUUUG
The “polymerase ribozyme fitness (log ratio)” value of the first is lower: -4.41 for the first, -2.07 for the second.

Going from GACCAAUCUGCCCUCAGAGCUCGAGAACAUCUUCGGAUGCAGAGGAGGCAGGCUUUGGUGGCGCGAUAGCGCCAACGUCCUCAACCUCCAAUGCAUCCCACCACAUGAUGAUGCCUGAACAGCCUUGGUUUUUUG to GACCAAUCUGCCCUCAGAGCUCGAGAACAUCUUCGGAUGUAGAGGAGGCAGGCUUCGGUGGCGCGAUAGCGCCAACGUCCUCAACCUCCAAUGCAUCCCACCACAUGAUGAUGCCUGAAGAGCCUUGGUUAUUUG, the “polymerase ribozyme fitness (log ratio)” value falls from 0.793 to -0.601.

Going from GACCAAUUUGCCCUCAGAGCUCGAGAACAUCUUCGGAUCCAGAGGAGGCAGGCUUCGGUGGCGCGAUAGCGCCAACGUCCUCAACCUCCAAUGCACCCCAUCACAUGAUGAUGCCAGAAGAGCCUUGGUUUUUUG to GACCAAUCUGCCCUCAGAGCUCGAGAACAUCUUCGGAUGCAGAGGAGGCAGGCUUCGGUGGCGCGAUAGCGCCAACGCCCUCAACCUUCAAUGCAUCCCACCACAUGAUGAUGCCUGAAGAGCCUUGGUUUUUUG, the “polymerase ribozyme fitness (log ratio)” value rises from -3.66 to 0.285.

First: GAGCAAUCUGCCAUCAGGGCUCGAUAACAUCUUCGGAUGCAGAGGAGGCAGGCUUCGGUGGCACGAUAGCGCCAACGUCCUCAACCUCCAAUGCAUCCCACCACAUGAUGCUGCCUGGAGAGCCUUGGUUUUUUG
Second: GACCCAUUUGCCCUCAGAGCUCGAGAACAUCUUCGGAUGCAGAGGAGGCAGGCUUCGGUGGUGCGAUAGCGCCAACGUCCUCAACCUCCAAUGCAUCCCACCACAUGAUGAUGCCUGAAGAGCCUUGGUUUUUUG
The “polymerase ribozyme fitness (log ratio)” value of the first is lower: -6.44 for the first, -0.266 for the second.

Going from GACCAAUCUGUCCUCAGAGCUCGAGAACAUCUUCGAAUGCAGAGGAGGCAGGCUUCGGUGGCGCGAUAGCGCCAACGUCCUCAACCUCCAAUGCAUCCCAUCACAUGAUGAUGCCUGAAGAGCCUUGGUUUUUUG to GACCAAUCUGCCCUCAGAGCUCGAGAACAUCUUCGGAUGCAGAGGAGGCAGGCUUCGGCGGCGCGAUAGCGCCAACGUCCUCAACCUCCAAUGCAUCCCACCACAUGAUGAUGCCUGAACAGCCUUGUUAUUUUG, the “polymerase ribozyme fitness (log ratio)” value rises from -4.98 to 1.03.

Compared with GACCAAUCUGCCCUCAGAGGUCGAGAACAUCUUCGGAUGCAGAGGAGGCAGUCUUCGGUGGCGCGAUAGCGCCAACGUCCUCAACCUCCAAUGCAUCCCACCACAUGAUGAUGCCUGAAGAGCCUUGGUUUUUUG, GACCAAUCUGCCCUCAGAGCUCGAGAACAUCUGCGGAUGCAGAGGAGGCAGGCUUCGGUGGCGAGAUAGCUCCAACGUCCUCAACCUCCAAUGCAUCCCACCACAUGAUGAAGCCUGAAGAGCCUUGGUUUUUUG is lower in “polymerase ribozyme fitness (log ratio)” value: -5.6 for the first, -7.32 for the second.

Going from GACCAAUCUGCCCUAAAAGCUCGAGAACAUCUUCGGAUGCAGAGGAGGCAGGCUUCGGUGGCGCGAUAGCGCGAACGUCCUCAACCUCCAAUGCAUCCCACCACAUGAUGAAGCCUGAAGAGCCUUGGUUUUUUG to GACCAAUCUGCCCUCAGAGCUCGAGAACAUCUUCGGAUGCAGAGGAGGCAGGCUUAGGUGGCGCGAUAGCGCCAACGUCCUCAACCUCCAAUGCAUCCCACCACCUGAUGAUGCCUGAAGAGCCUUGGUUUUUUG, the “polymerase ribozyme fitness (log ratio)” value rises from -4.93 to -3.61.

First: GACCAAUCUGCCCUCAGAGCUCGAGAACAUCUUCGGAUGCAGAUGAGGCAGGCUUCGGUGGCCCGAUAGCGCCAACGUUCUCAACCUCCAAUGCAUCCCACCACAUGAUGAAGCCUGAAGAGCCUUGGUUUUUUG
Second: GACCAAUCUGCCCUGAGAGCUCGAGAACAUCUUCGGAUGCAGUGGAGGCAGGCUUCGGUGGCGCGAUAGCGCCAACGUCCUCAUCCUCCAAUGCAUCCCACCACAUGAUGAUGCCUGAAGAGCCUUGGUUUUUUG
The “polymerase ribozyme fitness (log ratio)” value of the first is higher: 0.269 for the first, -5.64 for the second.

GACCAAUCUGCCCUCAGAGCUCGAGAACAUCUUCGGACGUAGAGGAGGCAGGCUUGGGUGGCGCGAUAGCGCCAACGACCUCAACCUCCAAUGCAUCCCACCACAUGAUGAUACCUGAAGAGCCUUGGUUUUUUG and GACCAAUCUGCCCUCAGAGCUCGAGAACAUCUUCGGAUGCAGAGGAGGCAGGCUUCGGUGGCGCGAUAGCGCCAACGUCCUGAACCUCCAAUGCAUCCCACCACAUGAUGAUGACUGAAGAGCCUUGGUUUUUUG are within 0.2 log units of each other in “polymerase ribozyme fitness (log ratio)” value: -3.17 for the first, -3.29 for the second.

First: GACCAAUCUGCCCUCAGAGCUCGAGAACAUCUUCGGAUGCAUAGGAGGCAGGCUUCGGUGGCGCGAUAGCGCCAACGUCCUCAACCUCCAAUGCAUCCCACCACAUGAUGAUGCCUGAAAAGCCUUGGUUUUUUG
Second: GACCAAUCUGCCCUCAGAGCUCGAGAACAUCUUCGGAUGCAGAGGAGGCAGGCUUCGGUGGCGCGAUAGCGUCAACGUCCUCAACCUCCAAUGCAUCCCACAACAUGAUGAUGCCUGAAGAGGCUUGGUUUUUUG
The “polymerase ribozyme fitness (log ratio)” value of the first is lower: -1.14 for the first, -0.477 for the second.

Going from GACCAAUCUGCCCUCAGAGCUCGAGAACAUCUUCGGAUGCAGAGGAGGCAGGCUUAGGUGGCGCGAUAGCGCCAACGUCCUCAUCCUCCAAUGAAUCCCACCACAUGAUGAUGACUGAAGAGCCUUGGUUUUUUG to GACCAUUCUGCCCUCAGAGCUCGAGAACAUCUUCGGAUGCAGAGGAGGCAGACUUCGGUGGCGCGAUAGCGCCAACGUCCUCAACCUCCAAUGCAUCCCACCACAUGAUGAUGCCCGAAGAGCCUUGGUUUUUUG, the “polymerase ribozyme fitness (log ratio)” value rises from -3.7 to -1.36.

Going from GACCAAUUUGCCCUCAGACCUCGAGAACAUCUUCGGAUGCAGAUGAGGCAGGCUUAGGUGGCGCGAUAGCGCCAACGUCCUCAACCUCGAAUGCAUCCCACCACAUGAUGAUGCCUGAAGAGCCUUGGUUUUUUG to GACCAAUGUGCCCUCAGAGCUCGAGAACAUCUUCGGAUGCAGAGGAGGCAGGCUUCGGUUGCGCGAUAGUGCCAACGUACUCAACCUCCAAUGCACCCCACCACAUGAUGAUGCCUGAAGAGCCUUGGUUUUUUG, the “polymerase ribozyme fitness (log ratio)” value falls from -2.64 to -4.38.

First: GACCAAUCUGCCCUCAGAGCUGGAGAACAUCUUCGGAUGCAGAGGAGGCAGGCUUCGGUGGCGCGAUAGCGCCAACGUCCUCAACCUCCAAUGCAUCCCACCACAUGAUGAUGCCUGAAGAGACUUGGUUUUUUG
Second: GACCAAUCUGCCCUCAGAGCUCGAGAACAUCUUCGGAUGCAGAGGAGGCAGGCUUCGGUGGCGCGAUAGCGCCAACGUCCUCAACCUCCAAUGCACCCCACCACAUGAUGAUGGCUGAAGAGCCUUGGUUUUUUG
The “polymerase ribozyme fitness (log ratio)” value of the first is lower: -3.18 for the first, -2.45 for the second.

Compared with GACCAAUCUGCGCUCAGAGCUCGAGAACAUCUUCGGAUGCAGUGGAGGCAGGCUUCGGUGACGCGAUAGCGCCAACGUCCUCAUCCUCCAAUGCAUCCCACCACAUGAUGAUGCCUGAAGAGCCUUGGUUUUUUG, GACCAAUCUGCCCUCAGAGCUCGAGAACAUCUUCGGAUGCAGAGGAGGCAGGCUACGGUGGCGCGAUAGCGCCGACGUCCUGAACCUCCAAUGCAUCCCACCACAUGAUGAUGCCUGAAGAGGCUUGGUUUUUUG is higher in “polymerase ribozyme fitness (log ratio)” value: -1.52 for the first, 1.26 for the second.

Compared with GACCAAUCUGCCCUCAGAGCUCGAGAACAUCUUCGGAUGCAGAGGUGGCAGGCUUCGGCGGCGCGAUAGCGCCAACGUCCUCAACCUCCAAUGCAUCCCACCACAUGAAGAUGCCUGAAGAGCCUUGGUUUUUUG, GACCAAUCUGCCCUCAGAGCUCGAGAACAUCUUCGGAUGCAGAGGAGGCAGGCUUCGGUGGCUCGAUAGCGCCAACGUCCUCAACCUCCAAUGCAUCCCACCACAUGAUGAUGCGUGAAGAGCCUUGGUUUUUUG is higher in “polymerase ribozyme fitness (log ratio)” value: -5.97 for the first, -2.29 for the second.

First: GACCAAUCUGCGCUAAGAGCUCGAGAACAUCUUCGGAUGCAGAGGAGGCCGGCUUCGGUGGCGCGAUAGCGCCAACGUCCUCAACCUCCAAUGCAUCCCACCACAUGAUGAUGCCUGAAGAGCCUUGGUUUUUUG
Second: GACCAAUCUGCCCUCAAAGCUCGAGAACAUCUUCGGAUGCAGAGGAGGCAGGCUUCGGUGGCGCGAUAUCGCCAACGUCCUCAACCUCCAAUGCAUCCCACCACAUGAUGAUGCCUGGAGAGCCUUGGUUUUUUG
The “polymerase ribozyme fitness (log ratio)” value of the first is lower: -2.29 for the first, 0.157 for the second.

First: GACCAAUCUGCCCUCAGAGCUCGAGAACAUCUUCGGAGGCAGAGGAGGCAGGCUUCGGUGGCGCGAUAGCGCCAACGUCCUCAACCUCCAAUGCCUCCCACCACAUGAUGAUGCCUGAAGAGCCUUGGUUUUUUG
Second: GACCAAUCUGCCCUCAGAGCUCGAGAACAUCUUCGGAUGCAGAGGAGGUAGGCUUCGGUGGCGCGAUAGCGCCAACGUCCUCAACCUCCAAUACAUCCCAUCACAUGAUGAUGCCUGAAGAGCCUUCGUUUUUUG
The “polymerase ribozyme fitness (log ratio)” value of the first is higher: 0.185 for the first, -2.96 for the second.

Going from GACCAAUCUGCCCUCAGAGCUCGAGAACAUCUUCGGAUUCAGAGGAGGCAGGCUGCGGUGGCGCGAUAGCGCCCCCGUCCUCAACCUCCAAUGCAUCCCACCAUAUGAUGAUCCCUGAAGAGCCUUGGUUUUUUG to GACCAAUCUGCCCUCAGAGCUCGAGAACAUCUUCGGAUGCAGAGGAGGCACGCUUCGGUGUCGCGAUAGCGCCAACGUCCUCAACCUCCAAUGCAUCCCACCACAUGAUGAUGCCUGAAGAGCCUUGGUUUUUUG, the “polymerase ribozyme fitness (log ratio)” value falls from -3.51 to -5.29.
